Experimental data from the supplement of paper PMC10724198.
± gives the standard deviation of the averaged measurements.

How the values were obtained:
[1] = system: Saccharomyces cerevisiae; assay: protein stability index of tFT-peptide fusion (C-terminal peptide) (PSI (0-1 scale)); higher = more stable (slower turnover)
Description: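 MPS profiling in S. cerevisiae of the tFT-X12 degron library: putative degron peptides plus stable controls, 12 aa, fused to the C-terminus of a sfGFP-mCherry timer. Cells are FACS-sorted into 8 mCherry/sfGFP bins and deep-sequenced. PSI runs from 0 (unstable) to 1 (stable). Backgrounds are wild type, das1Δ and doa10Δ at 30 °C, and wild type, das1Δ, cdc34-1 and cdc53-1 at 37 °C; 2-3 technical replicates each.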

[2] = system: Saccharomyces cerevisiae; assay: as above; details: genetic background: wild type; temperature: 30 C
[3] = genetic background: cdc34-1, temperature: 37 C
[4] = genetic background: cdc53-1, temperature: 37 C
[5] = genetic background: das1 deletion, temperature: 30 C
[6] = genetic background: das1 deletion, temperature: 37 C
[7] = genetic background: doa10 deletion, temperature: 30 C
[8] = genetic background: wild type, temperature: 30 C
[9] = genetic background: wild type, temperature: 37 C
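Also: PSI is a weighted mean of sequencing reads over stability bins, variants kept only with over 10 reads, mCherry proximal and sfGFP distal, peptide attached via GGGS linker.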

Sequence | protein stability index [1, 3] | protein stability index [1, 4] | protein stability index [1, 5] | protein stability index [1, 6] | protein stability index [1, 7] | protein stability index [1, 8] | protein stability index [1, 9] | protein stability index [2]
HTYSFRLLFIFL | 0.378 ± 0.031 | 0.456 ± 0.016 | 0.328 ± 0.035 | 0.4762 ± 0.0044 | 0.381 ± 0.013 | 0.321 ± 0.022 | 0.45677 ± 0.00022 | 0.388 ± 0.05
LAFMYFVCPRLA | 0.598 ± 0.045 | 0.645 ± 0.0077 | 0.56 ± 0.02 | 0.6511 ± 0.0057 | 0.245 ± 0.0083 | 0.269 ± 0.031 | 0.464 ± 0.022 | 0.369 ± 0.0057
LSGIILGWSVSG | 0.755 ± 0.047 | 0.76 ± 0.0077 | 0.6302 ± 0.0058 | 0.735 ± 0.047 | 0.6308 ± 0.005 | 0.645 ± 0.0062 | 0.7292 ± 0.003 | 0.676 ± 0.034
FFYRFQDLPRIC | 0.681 ± 0.018 | 0.743 ± 0.037 | 0.651 ± 0.015 | 0.7358 ± 0.0068 | 0.191 ± 0.018 | 0.231 ± 0.035 | 0.537 ± 0.033 | 0.397 ± 0.074
AVRLPFPLLVHL | 0.205 ± 0.012 | 0.195 ± 0.0033 | 0.283 ± 0.031 | 0.386 ± 0.0046 | 0.427 ± 0.016 | 0.276 ± 0.053 | 0.337 ± 0.029 | 0.473 ± 0.028
SSVLLMFFCFVC | 0.256 ± 0.02 | 0.388 ± 0.015 | 0.318 ± 0.014 | 0.476 ± 0.025 | 0.159 ± 0.012 | 0.164 ± 0.011 | 0.252 ± 0.019 | 0.262 ± 0.023
FSVSYFRLVRLC | 0.39 ± 0.017 | 0.572 ± 0.0077 | 0.458 ± 0.032 | 0.602 ± 0.0083 | 0.0722 ± 0.003 | 0.0819 ± 0.038 | 0.08731 ± 0.00027 | 0.0191 ± 0.027
SSFPGPPLPPDP | 0.704 ± 0.024 | 0.74 ± 0.013 | 0.652 ± 0.024 | 0.731 ± 0.022 | 0.682 ± 0.038 | 0.7 ± 0.019 | 0.7108 ± 0.0069 | 0.59 ± 0.17
GGSWVRCLRTMG | 0.628 ± 0.019 | 0.71 ± 0.024 | 0.614 ± 0.016 | 0.7097 ± 0.0014 | 0.17 ± 0.0073 | 0.158 ± 0.028 | 0.399 ± 0.032 | 0.312 ± 0.029
LLFGCLIRIGCS | 0.268 ± 0.017 | 0.307 ± 0.012 | 0.244 ± 0.048 | 0.403 ± 0.021 | 0.225 ± 0.0046 | 0.253 ± 0.03 | 0.3638 ± 0.00063 | 0.35 ± 0.051
SLCSRLVVVAWF | 0.531 ± 0.017 | 0.599 ± 0.026 | 0.432 ± 0.026 | 0.608 ± 0.014 | 0.374 ± 0.035 | 0.386 ± 0.0062 | 0.553 ± 0.026 | 0.494 ± 0.024
VFFHFFVCWRFV | 0.184 ± 0.068 | 0.231 ± 0.013 | 0.25 ± 0.032 | 0.3646 ± 0.00069 | 0.0556 ± 0.014 | 0.0548 ± 0.018 | 0.0857 ± 0.0019 | 0.121 ± 0.019
CLCVLVSFFFGL | 0.41 ± 0.037 | 0.489 ± 0.041 | 0.35 ± 0.024 | 0.5006 ± 0.0024 | 0.316 ± 0.024 | 0.323 ± 0.027 | 0.4768 ± 0.0016 | 0.288 ± 0.074
AFSISPFRLRMV | 0.642 ± 0.026 | 0.753 ± 0.025 | 0.649 ± 0.013 | 0.746 ± 0.03 | 0.249 ± 0.0032 | 0.293 ± 0.022 | 0.541 ± 0.0024 | 0.418 ± 0.017
CLCFFMSILWWV | 0.4741 ± 0.0038 | 0.498 ± 0.017 | 0.434 ± 0.035 | 0.5222 ± 0.0016 | 0.422 ± 0.015 | 0.374 ± 0.019 | 0.478 ± 0.0048 | 0.4269 ± 0.0011
